As a reminder, the Kd is the free concentration of one partner at which half of the binding sites on the other are occupied at equilibrium, for simple one-to-one binding.

Assay [1] addresses T1, extracellular domain of activin receptor type IIB (ActRIIBecd), biotinylated (Homo sapiens (Human), UniProt Q13705 27-117, amino-biotinylated with amine-PEG3-Biotin).
T1 construct: immobilised on a streptavidin-coated sensor chip; also called biotinylated ActRIIBecd; extracellular domain of ActRIIB
T1 sequence: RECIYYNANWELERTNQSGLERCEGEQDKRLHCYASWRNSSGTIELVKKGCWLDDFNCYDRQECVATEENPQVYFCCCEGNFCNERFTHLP
The experiment in a line: BIAcore SPR as Example 5 (method not restated); SD ±2.01 nM. How it is done: Biosensor experiments. In one embodiment, experiments were performed on a BIAcore™ T100/T200 instrument (Pharmacia Biosensor AB) in the multichannel mode (serial flow path involving flow cells 1+2+3+4). Flow rate was 10 μl/min; temperature was 25° C.; and data were recorded at 2.5 points/s. All four segments of a sensor chip CMS were coated with streptavidin (Sigma) to a density of 2000 pg/mm² (2000 resonance units) by the aminocoupling procedure. ActRIIBecd (10 mg) and amine-PEG3-Biotin (10 mg, Pierce, Rockford, Ill.) were dissolved in 200 μl H₂O and 10 mg NaCNBH₃ was added to prepare biotinylated ActRIIBecd. The reaction mixture was heated at 70° C. for 24 h, after that a further 10 mg NaCNBH₃ was added and the reaction was heated at 70° C. for another 24 h. After cooling to room temperature, the mixture was desalted with the spin column (3,000 molecular weight cut off (MWCO)). […] Sensograms were recorded during flow of the analyte (the ActRIIBecd-associated polypeptides (i.e., domains) as previously described) first through flow cell 1 (control) then through flow cell 2 (biotinylated ActRIIBecd). […] The sensograms obtained at 1.11, 3.33, 10, 30, and 90 nM analyte were evaluated for equilibrium binding, association rate, and dissociation rate by using the programs supplied with the instrument (BIA evaluation 2.1; Software Handbook. 1995; Pharmacia Biosensor AB).
For orientation: SPR reads the build-up and loss of mass on a sensor chip optically.

Assay [2] has as its target T1, extracellular domain of activin …. The experiment in a line: Mean KD column of Table 5; method not restated (BIAcore as Example 5); species also listed in Table 4. The method in brief:
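SPR, 25° C, 10 μl/min. Streptavidin surface carrying biotin-ActRIIBecd (50-250 RU); analyte series 1.11-90 nM in pH 4.5 glycine buffer. Control cell subtracted; kinetics and equilibrium binding fitted.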

B1: SEQ ID NO: 194, cysteine pairs C23-C65^a (designed binder)
chain: VDFSDVGWNDWIVAPPGYHAFYCHGECPFPLADHLNSTNHAIVQTLVNSVAQAKHKQRKRLKSSCKRHPLY
modifications: disulfides C23-C65 (intra)
B1: the Kd in assay [1] and in assay [2] was 46 nM in each case.

For the origin of these results see patent US20190071480A1 (Biogen, published 2019).
